Key:
Assay in all cases: cell-based or functional assay
[1] = target: HIV-1 Env of isolate MGRM-G-019 (subtype G) (HIV-1)
[2] = target: HIV-1 APV_13 Env (pseudovirus) (HIV-1)
[3] = target: HIV-1 Env of isolate 92UG024 (subtype D) (HIV-1)
[4] = target: HIV-1 Env of isolate MG RM-D-022 (subtype D) (HIV-1)
[5] = target: HIV-1 Env of isolate MG RM-D-029 (subtype D) (HIV-1)
[6] = target: HIV-1 Env of isolate MGRM-F1-006 (subtype F) (HIV-1)
[7] = target: HIV-1 JR-CSF Env D113A (HIV-1 (isolate JR-CSF)) (UniProt P20871)
[8] = target: HIV-1 JR-CSF Env N188A (HIV-1 (isolate JR-CSF)) (UniProt P20871)
[9] = target: HIV-1 MGRM-C-028 envelope glycoprotein (Env) on pseudovirus (HIV-1)
[10] = target: HIV-1 92RW009 envelope glycoprotein (Env) (HIV-1)
[11] = target: HIV-1 93RW029 envelope glycoprotein (Env) (HIV-1)
[12] = target: HIV-1 94UG103 envelope glycoprotein (Env) (HIV-1)
[13] = target: HIV-1 Env of isolate 92UG001 (clade D) (HIV-1)
[14] = target: HIV-1 Env of isolate 98CN009 (HIV-1)
[15] = target: HIV-1 Env of isolate MGRM-D-005 (HIV-1)
[16] = target: HIV-1 Env of isolate MGRM-D-016 (HIV-1)
[17] = target: HIV-1 Env of isolate MGRM-D-024 (clade D) (HIV-1)
[18] = target: HIV-1 Env of isolate MGRM-G-015 (clade G pseudovirus) (HIV-1)
[19] = target: HIV-1 Env of isolate MGRM-G-024 (clade G pseudovirus) (HIV-1)
[20] = target: HIV-1 Env of pseudovirus JRCSF, clade B (HIV-1) (UniProt P20871)
[21] = target: HIV-1 JR-CSF envelope protein (Env) on pseudovirus (HIV-1) (UniProt P20871)
[22] = target: HIV-1 LAVI_C3 Env (HIV-1)
[23] = target: HIV-1 MGRM-A-007 envelope glycoprotein (Env) (HIV-1)
[24] = target: HIV-1 MGRM-A-009 envelope glycoprotein (Env) (HIV-1)
[25] = target: HIV-1 MGRM-C-005 Env (HIV-1)
[26] = target: HIV-1 MGRM-C-015 Env (HIV-1)
[27] = target: HIV-1 MGRM-C-019 Env (HIV-1)
[28] = target: HIV-1 MGRM-F1-014 Env (pseudovirus) (HIV-1)
[29] = target: HIV-1 93UG077 envelope glycoprotein (Env) (HIV-1)
[30] = target: HIV-1 Env of isolate CAAN.A2 (HIV-1)
[31] = target: HIV-1 Env of isolate CMU02 (CRF01_AE), on pseudovirus (HIV-1)
[32] = target: HIV-1 Env of isolate MGRM-AE-003 (CRF01_AE), on pseudovirus (HIV-1)
[33] = target: HIV-1 Env of isolate MGRM-C-019 (HIV-1)
[34] = target: HIV-1 Env of isolate MGRM-C-024 (HIV-1)
[35] = target: HIV-1 Env of isolate MGRM-Chronic-B-004 (HIV-1)
[36] = target: HIV-1 Env of isolate MGRM-F1-004 (subtype F), on pseudovirus (HIV-1)
[37] = target: HIV-1 Env of isolate MGRM-F1-006 (subtype F), on pseudovirus (HIV-1)
[38] = target: HIV-1 Env of isolate MGRM-F1-016 (subtype F), on pseudovirus (HIV-1)
[39] = target: HIV-1 Env of isolate NL43 (HIV-1)
[40] = target: HIV-1 Env of isolate TRO.11 (HIV-1)

5345_I01 (PGT-137) (antibody), sequence (VH): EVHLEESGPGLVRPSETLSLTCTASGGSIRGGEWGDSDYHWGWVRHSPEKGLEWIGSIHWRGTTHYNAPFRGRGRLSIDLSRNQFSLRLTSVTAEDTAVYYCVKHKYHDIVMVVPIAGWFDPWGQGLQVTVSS
5345_I01 (PGT-137) (antibody), sequence (VL): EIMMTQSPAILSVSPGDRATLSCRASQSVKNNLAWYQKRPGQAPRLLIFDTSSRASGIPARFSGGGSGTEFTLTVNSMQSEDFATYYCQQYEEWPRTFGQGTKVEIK
PGT-141 (4964_G22; 4993_K13) (antibody), sequence (VH): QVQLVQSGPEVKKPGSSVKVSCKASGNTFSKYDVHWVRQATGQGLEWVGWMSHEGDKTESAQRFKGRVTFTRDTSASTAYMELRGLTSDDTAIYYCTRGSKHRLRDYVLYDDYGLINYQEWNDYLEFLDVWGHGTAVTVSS
PGT-141 (4964_G22; 4993_K13) (antibody), sequence (VL): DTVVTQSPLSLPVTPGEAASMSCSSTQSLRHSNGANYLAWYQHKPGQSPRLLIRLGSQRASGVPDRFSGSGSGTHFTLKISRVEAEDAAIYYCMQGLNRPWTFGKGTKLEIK
PGT-142 (4995_E20) (antibody), sequence (VH): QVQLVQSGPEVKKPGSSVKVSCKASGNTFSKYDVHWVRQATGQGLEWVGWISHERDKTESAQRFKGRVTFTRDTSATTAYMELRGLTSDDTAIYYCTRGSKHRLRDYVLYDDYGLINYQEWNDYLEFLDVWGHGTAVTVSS

PGT-141 (4964_G22; 4993_K13) (antibody) gave a neutralization IC50 [1] of 20.3 µg/mL.
For 4838_L06 (PGT-121) (antibody), the IC50, pseudovirus neutralization [2] was 0.251 µg/mL, the IC50 (µg/mL), pseudovirus neutralization [3] was > 50 µg/mL and the IC50 (µg/mL), pseudovirus neutralization [4] was > 50 µg/mL. For the same substance, the IC50 (µg/mL), pseudovirus neutralization [5] was > 50 µg/mL and the IC50 (µg/mL), pseudovirus neutralization [6] was 5.33 µg/mL.
With 4858_P08 (PGT-123) (antibody) the IC50, pseudovirus neutralization [2] was 0.138 µg/mL, the IC50 (µg/mL), pseudovirus neutralization [3] was > 50 µg/mL and the IC50 (µg/mL), pseudovirus neutralization [4] was > 50 µg/mL. For the same substance, the IC50 (µg/mL), pseudovirus neutralization [5] was > 50 µg/mL, the IC50 (µg/mL), pseudovirus neutralization [6] was 6.89 µg/mL and the Fold IC50 increase relative to wild-type [7] was 1.1 fold. It also gave a Fold IC50 increase relative to wild-type [8] of 1.1 fold, an IC50 (ug/ml), neutralizing activity [9] of 0.443 µg/mL and an IC50, pseudovirus neutralization [9] of 0.443 µg/mL. For the same substance, the IC80, pseudovirus neutralization [9] was 2.8 µg/mL, the IC90 (pseudovirus neutralization) [9] was 7.11 µg/mL and the IC95, pseudovirus neutralization [9] was > 10 µg/mL.
5145_B14 (PGT-127) (antibody) was tested, and the IC50, pseudovirus neutralization [2] was 0.026 µg/mL, the IC50 (µg/mL), pseudovirus neutralization [3] was > 50 µg/mL and the IC50 (µg/mL), pseudovirus neutralization [4] was > 50 µg/mL. For the same substance, the IC50 (µg/mL), pseudovirus neutralization [5] was > 50 µg/mL, the IC50 (µg/mL), pseudovirus neutralization [6] was 7.17 µg/mL and the Fold IC50 increase relative to wild-type [7] was 0.3 fold. The Fold IC50 increase relative to wild-type [8] was 0.8 fold.
1496_C09 (PG9) (TCN-109) (antibody) showed an IC50 (µg/ml), pseudovirus neutralization [10] of 0.03 µg/mL, an IC50 (µg/ml), pseudovirus neutralization [11] of 1.19 µg/mL and an IC50 (µg/ml), pseudovirus neutralization [12] of 0.24 µg/mL. It also gave an IC50 neutralization [12] of 0.31 µg/mL, an IC50 (µg/ml), pseudovirus neutralization [13] of 41.8 µg/mL and an IC50, pseudovirus neutralization [14] of 0.371 µg/mL. For the same substance, the IC50 (µg/mL), pseudovirus neutralization [15] was 1.8 µg/mL, the IC50 (µg/mL), pseudovirus neutralization [16] was 0.098 µg/mL and the IC50 (µg/ml), pseudovirus neutralization [17] was 0.03 µg/mL. It also gave an IC50 (µg/ml), pseudovirus neutralization [18] of 1.51 µg/mL, a neutralization IC50 [1] of 14.6 µg/mL and an IC50 (µg/ml), pseudovirus neutralization [19] of 0.07 µg/mL. For the same substance, the IC50 (µg/ml), pseudovirus neutralization [20] was 0.003 µg/mL, the neutralization IC50 [21] was < 0.0025 µg/mL and the IC50 [22] was 1.45 µg/mL. For the same substance, the IC50 (µg/ml), pseudovirus neutralization [23] was 0.37 µg/mL, the IC50 (µg/ml), pseudovirus neutralization [24] was 0.03 µg/mL and the IC50 [25] was 2.98 µg/mL. It also gave an IC50 [26] of 0.5 µg/mL, an IC50 [27] of 0.01 µg/mL and an IC50 (ug/ml), neutralizing activity [9] of 0.121 µg/mL. The IC50 neutralization [9] was 0.121 µg/mL, the IC80, neutralization [9] was 0.645 µg/mL and the IC90, neutralization [9] was 1.65 µg/mL. For the same substance, the IC95, neutralization [9] was 3.71 µg/mL and the IC50 (µg/ml), pseudovirus neutralization [28] was 0.01 µg/mL.
Work on PGT-142 (4995_E20) (antibody) yielded a neutralization IC50 [1] of 5.95 µg/mL.
With PGV04 (antibody) the IC50, pseudovirus neutralization [14] was 0.0125 µg/mL, the IC50 (µg/mL), pseudovirus neutralization [15] was > 50 µg/mL and the IC50 (µg/mL), pseudovirus neutralization [16] was 0.201 µg/mL. For the same substance, the neutralization IC50 [1] was 0.027 µg/mL.
With PGT-121 (antibody) the IC50 neutralization [29] was 0.0459 µg/mL and the IC50 neutralization [12] was 1.38 µg/mL.
With 4877_D15 (PGT-122) (antibody) the IC50, pseudovirus neutralization [2] was 0.778 µg/mL, the IC50 (µg/mL), pseudovirus neutralization [3] was > 50 µg/mL and the IC50 (µg/mL), pseudovirus neutralization [4] was > 50 µg/mL. For the same substance, the IC50 (µg/mL), pseudovirus neutralization [5] was > 50 µg/mL, the IC50 (µg/mL), pseudovirus neutralization [6] was 3.27 µg/mL and the IC50 (ug/ml), neutralizing activity [9] was 2.06 µg/mL.
For 5345_I01 (PGT-137) (antibody), the IC50 [14] was 5.06 µg/mL, the IC50 [30] was > 50 µg/mL and the IC50, single-round pseudovirus neutralization [31] was > 50 µg/mL. The IC50, single-round pseudovirus neutralization [32] was > 50 µg/mL, the IC50 [33] was > 50 µg/mL and the IC50 [34] was > 50 µg/mL. For the same substance, the IC50 [35] was > 50 µg/mL, the IC50 [15] was > 50 µg/mL and the IC50 [16] was > 50 µg/mL. The IC50, pseudovirus neutralization [36] was 40.3 µg/mL, the IC50, pseudovirus neutralization [37] was > 50 µg/mL and the IC50, pseudovirus neutralization [38] was > 50 µg/mL. For the same substance, the IC50 [39] was 17.4 µg/mL and the IC50 [40] was 9.35 µg/mL.

Reference: patent US20200024330A1
